Source: the supplement of paper PMC10126150
± gives the standard deviation of the averaged measurements.

Tested on: ATP
Assay: switch fluorescence ratio, 500 uM ATP over buffer (Cy3 cluster intensity, sum of 5 cycles each) (fold (ratio)); higher = stronger signal-on switching upon ATP binding; sequences stand for … in TCGTCGGCAGCGTCAGATGTGTATAAGAGACAGTTTTTTTTTTTTTTTTTTTTTTTTT…TC
Settings: aptamer strand: ATP DNA aptamer (quencher-CACCTGGGGGAGTATTGCGGAGGAAGG + anchor), 100 nM annealed; ATP concentration: 500 uM
How it was run: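 Cy3-labelled switching-strand clusters on a modified Illumina MiSeq flow-cell were annealed to 100 nM quencher-labelled ATP aptamer, imaged in selection buffer, then imaged after 15 min with 500 uM ATP at 22 °C. Five buffer/ATP cycles ran, with NaOH stripping and re-annealing between them. The fluorescence ratio is summed target-cycle over summed buffer-cycle Cy3 intensity per cluster, averaged per switch-domain sequence. Clusters outside 100-1000 RFU were excluded.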
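Note: ATP exposure 15 min at 22 °C before imaging.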

| Sequence | switch fluorescence ratio |
| --- | --- |
| ATACTGAGTT | 1.05 ± 0.042 |
| TTCGGGTCGG | 0.991 ± 0.026 |
| TACGTTGGGG | 1 ± 0.028 |
| GATTTAGATT | 1 ± 0.046 |
| GGGGTTCTGC | 0.952 ± 0.039 |
| TCGGTTGAGA | 1.01 ± 0.021 |
| TTGTTGTCTT | 1.02 ± 0.043 |
| GTATAAGAGC | 0.985 ± 0.033 |
| ACGCGGGACA | 1.04 ± 0.014 |
| GGGGGGACTA | 1.03 ± 0.031 |
| CAGTCGACGG | 0.993 ± 0.011 |
| AAGTGGCTGT | 0.941 ± 0.027 |
| AGTGTAATGT | 0.975 ± 0.059 |
| TTTAATTCT | 0.989 ± 0.022 |
| AGTAACTAGA | 1.01 ± 0.046 |
| ATCATTCGGT | 0.9964 ± 0.0074 |
| TAGGGGCTG | 1.01 ± 0.015 |
| ATGGTTAAAG | 0.996 ± 0.026 |
| TTAGAGTAGT | 0.988 ± 0.013 |
| GTGTGGGCAG | 0.973 ± 0.0026 |
| CATTTGGAAT | 1.7 ± 0.97 |
| TGTTCTTATA | 0.993 ± 0.026 |
| CGGGTGCTTT | 1.05 ± 0.013 |

| Sequence | switch fluorescence ratio |
| --- | --- |
| AGATTTTGTG | 0.9922 ± 0.0038 |
| TGACAGGATT | 0.9946 ± 0.0083 |
| GGGGGCTTAG | 0.988 ± 0.038 |
| AAGTACTTTT | 1.2 ± 0.055 |
| TGTTTCAAGT | 0.973 ± 0.064 |
| AATTGTAGTT | 0.9786 ± 0.0048 |
| ATTACGGTGG | 1 ± 0.045 |
| GGACGGGGGG | 1.01 ± 0.056 |
| GGGGTACCGG | 1.02 ± 0.032 |
| TAGTAGTTGC | 1.032 ± 0.0059 |
| GGGGTTTTAC | 0.995 ± 0.036 |
| ATCTATGGTT | 0.9669 ± 0.0036 |
| GGAAAAAAGT | 1.02 ± 0.047 |
| TAATTAGTTT | 0.982 ± 0.015 |
| GCTGCGGTTT | 0.993 ± 0.013 |
| TTGTGGCGTT | 0.984 ± 0.0045 |
| TAAAATTTTA | 0.988 ± 0.023 |
| TGCTCCAGTC | 1.094 ± 0.0067 |
| GCGTGCCTCG | 1.02 ± 0.036 |
| TAACAGAGTG | 1 ± 0.023 |
| GTGAAGGGGT | 1 ± 0.047 |
| ACTGGGGGGC | 1.05 ± 0.016 |
| GGTGGAGGAG | 0.979 ± 0.023 |

| Sequence | switch fluorescence ratio |
| --- | --- |
| ATACGGCATG | 1.08 ± 0.011 |
| AGAGTGTGGG | 1.02 ± 0.033 |
| CAGTATGTAG | 0.957 ± 0.02 |
| ATTTGCGGTT | 0.9949 ± 0.0022 |
| GATGGCGGGT | 1.02 ± 0.07 |
| TCATTGGACT | 0.98 ± 0.023 |
| TTAAAATTTT | 1.06 ± 0.06 |
| TACTTCTGTG | 1 ± 0.018 |
| CGGCTCTCTT | 1.009 ± 0.0017 |
| CAGTTGGGTT | 1.02 ± 0.041 |
| TTATGTGGGC | 0.97 ± 0.022 |
| TTTTGCCGTT | 1.01 ± 0.019 |
| TTTTTGTATA | 0.979 ± 0.027 |
| TTAGCTACTG | 1.03 ± 0.056 |
| CACTAGTAAA | 0.9984 ± 0.0094 |
| CCAGGCTTGT | 1.01 ± 0.018 |
| CTTCATAAGT | 0.983 ± 0.022 |
| AAAAGGGGTC | 0.9959 ± 0.0053 |
| CTTTGATTGA | 0.9806 ± 0.0047 |
| GGTGGAGGAA | 1.027 ± 0.0053 |
| GCGGTGGATG | 1.03 ± 0.012 |
| GGCGTCCTCT | 1.05 ± 0.034 |
| ATTAAAGTAG | 1.006 ± 0.0067 |

| Sequence | switch fluorescence ratio |
| --- | --- |
| TCATGGCACG | 1.02 ± 0.019 |
| TTCGGGTAAG | 0.987 ± 0.043 |
| ACCAACCGT | 1.16 ± 0.02 |
| AGCTAGCAG | 1.042 ± 0.0036 |
| GCTGGGGCTT | 0.991 ± 0.014 |
| CGAAAGGGCT | 0.989 ± 0.036 |
| ATACGGAAAA | 1.046 ± 0.004 |
| TGAAGTCCTT | 1.005 ± 0.0037 |
| ATTTATATAT | 1 ± 0.05 |
| CAAAAGTAGA | 0.991 ± 0.036 |
| TTTAAACTT | 1.63 ± 1.1 |
| TTTCTACGTA | 1.13 ± 0.14 |
| CGTGGCAGGG | 0.984 ± 0.033 |
| TCAGCATTTT | 1.01 ± 0.046 |
| ACGTTTGCG | 0.98 ± 0.04 |
| TCTATCCCAG | 1.13 ± 0.092 |
| CACTTAGGGG | 1.01 ± 0.022 |
| TCTTTTTTTA | 1.02 ± 0.06 |
| GGGGGCCGGG | 1.01 ± 0.052 |
| CGTGTTGGGT | 0.998 ± 0.048 |
| CCTATCACAA | 3.47 ± 0.46 |
| TGCCGAGGCC | 0.977 ± 0.0077 |
| CGGCAGGCTC | 1.19 ± 0.053 |

| Sequence | switch fluorescence ratio |
| --- | --- |
| TACCTTCTTG | 1.176 ± 0.0027 |
| AATTATTGGC | 1.02 ± 0.061 |
| GTCGGGGATA | 1 ± 0.049 |
| GCGTCAACTG | 1.04 ± 0.023 |
| TTTTTTGGGC | 0.99 ± 0.068 |
| GGGCTTAACG | 0.982 ± 0.014 |
| AGTAGGTAGG | 0.981 ± 0.03 |
| ATGAGGTGCT | 1.02 ± 0.032 |
| GGGTAGAAAA | 1.01 ± 0.043 |
| TTACTGGAAC | 1.06 ± 0.021 |
| CAGCCGGATG | 1.02 ± 0.028 |
| AGGATGGTGA | 0.968 ± 0.015 |
| TTTAAAAAGG | 0.982 ± 0.029 |
| AACATATCTT | 0.996 ± 0.014 |
| TTTATCATTG | 0.9909 ± 0.0086 |
| GGGCATGTTG | 1.02 ± 0.03 |
| TTCCGGTAAT | 1.23 ± 0.033 |
| TAAACAGCTG | 0.955 ± 0.043 |
| GTTTGGGAGG | 0.963 ± 0.01 |
| TCGGTCCCGG | 1 ± 0.065 |
| GCGGCGTCAA | 1.064 ± 0.0067 |
| CGTACGGTCT | 1.05 ± 0.059 |
| TGGGATACGA | 4.47 ± 0.82 |

| Sequence | switch fluorescence ratio |
| --- | --- |
| GACAGCGGGG | 0.999 ± 0.036 |
| GCGCTTAGGT | 0.983 ± 0.077 |
| CTCCCTTCGA | 1.17 ± 0.036 |
| GGATGGGGGA | 1.02 ± 0.03 |
| CATCTTGGAA | 1.01 ± 0.015 |
| TTGGGGTTTG | 0.975 ± 0.038 |
| GAGGGGTTCG | 1.01 ± 0.022 |
| TGGGTATTCC | 1.021 ± 0.0085 |
| TTTACTGGCT | 1.02 ± 0.0011 |
| AAAATCTGTT | 1.02 ± 0.061 |
| AAGTAAGGGC | 1.02 ± 0.031 |
| TTGTGGTGAG | 0.987 ± 0.016 |
| TTAGTTTCTG | 0.984 ± 0.046 |
| GGTGGAAGAG | 0.982 ± 0.036 |
| CCTGGGGGCA | 1.04 ± 0.0089 |
| TGGGGGACAT | 1.01 ± 0.028 |
| CGGGGTCCTA | 1.01 ± 0.014 |
| GTTAGTTAAA | 0.968 ± 0.02 |
| CGTGAAGTCG | 0.954 ± 0.025 |
| GGCGTCAGAC | 1 ± 0.031 |
| TTACGGGTCC | 0.961 ± 0.012 |
| ATGTATTATA | 1.01 ± 0.013 |
| GACGCATGGT | 2.37 ± 0.15 |

| Sequence | switch fluorescence ratio |
| --- | --- |
| CTCCTAGTTT | 1.03 ± 0.02 |
| GCATGAGCTG | 0.981 ± 0.014 |
| TGGACGAATA | 1.39 ± 0.29 |
| GATAGAAGTG | 0.986 ± 0.014 |
| GGAAAGAAGG | 1 ± 0.032 |
| TTAATTGGTG | 1.021 ± 0.009 |
| GAATGACGGA | 1.02 ± 0.057 |
| CGCCCGGAAT | 1.97 ± 0.3 |
| TTTTGGAAGC | 1.03 ± 0.034 |
| TCACGTGGCT | 0.975 ± 0.015 |
| AGCGTGATAC | 4.4 ± 0.36 |
| CGATGGAGAG | 1.0297 ± 0.00016 |
| GATCGAAAGG | 0.966 ± 0.025 |
| TGGGGACACT | 1.02 ± 0.016 |
| GGGTCAGCTG | 0.986 ± 0.036 |
| CATTCGGGGC | 1.11 ± 0.038 |
| TAGTGACTAG | 1.05 ± 0.021 |
| GCCGATAGGT | 1.08 ± 0.12 |
| TTAAAAAAAA | 1.16 ± 0.35 |
